Data taken from paper PMC4284738, “14-3-3 Proteins Participate in Light Signaling through Association with PHYTOCHROME INTERACTING FACTORs” (International Journal of Molecular Sciences, 2014).
Residue numbers refer to the chain shown, from its start.

Experiments:
Assay in all cases: pull-down; 0.3–20 µg of His-14-3-3κ incubated with MBP or MBP-PIFs in MBP column buffer at 4 °C in dark for 5–6 h, then amylose resin overnight; elution with 10 mM maltose; blot with anti-His and anti-MBP
Details in all cases: both partners purified
[1] = target: T1, maltose-binding protein (MBP)-tagged PIF3 (Arabidopsis thaliana, UniProt O80536 1-524)
T1 construct: Transcription factor PIF3, Arabidopsis thaliana, AGI AT1G09530; also called MBP-PIF3; source: E. coli BL21 (DE3), purified (amylose resin)
T1 sequence (looked up): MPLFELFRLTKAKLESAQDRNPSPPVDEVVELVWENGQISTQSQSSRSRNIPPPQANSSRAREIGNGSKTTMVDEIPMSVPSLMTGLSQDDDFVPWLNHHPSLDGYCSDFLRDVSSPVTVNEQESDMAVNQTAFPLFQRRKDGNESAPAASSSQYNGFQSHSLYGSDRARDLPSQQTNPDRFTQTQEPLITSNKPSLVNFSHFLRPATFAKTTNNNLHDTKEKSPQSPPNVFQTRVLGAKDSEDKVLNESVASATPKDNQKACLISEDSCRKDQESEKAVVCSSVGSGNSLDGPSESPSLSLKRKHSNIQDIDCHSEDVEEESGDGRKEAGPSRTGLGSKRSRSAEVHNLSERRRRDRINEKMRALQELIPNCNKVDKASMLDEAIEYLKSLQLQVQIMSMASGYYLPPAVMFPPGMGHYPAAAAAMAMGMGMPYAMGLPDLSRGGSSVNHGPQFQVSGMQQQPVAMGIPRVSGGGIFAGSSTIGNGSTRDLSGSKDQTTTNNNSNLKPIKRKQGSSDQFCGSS

[2] = target: T2, MBP-PIF3ala1+2 (PIF3 S23A S115A S116A) (Arabidopsis thaliana, UniProt O80536 1-524, S23A | S115A | S116A)
T2 construct: Transcription factor PIF3, Arabidopsis thaliana, AGI AT1G09530; ala1: Ser-23 to Ala; ala2: Ser-115 and Ser-116 to Ala; The cloning of the mutant into pMAL is not described on its own; source: E. coli BL21 (DE3), purified (amylose resin)
T2 sequence (looked up): T1 sequence (looked up) with S23A, S115A, S116A

MBP-PIF1 = target: T3, MBP-PIF1 (Arabidopsis thaliana, UniProt Q8GZM7 1-478)
T3 construct: Transcription factor PIF1, Arabidopsis thaliana; source: E. coli BL21 (DE3), purified (amylose resin)
T3 sequence (looked up): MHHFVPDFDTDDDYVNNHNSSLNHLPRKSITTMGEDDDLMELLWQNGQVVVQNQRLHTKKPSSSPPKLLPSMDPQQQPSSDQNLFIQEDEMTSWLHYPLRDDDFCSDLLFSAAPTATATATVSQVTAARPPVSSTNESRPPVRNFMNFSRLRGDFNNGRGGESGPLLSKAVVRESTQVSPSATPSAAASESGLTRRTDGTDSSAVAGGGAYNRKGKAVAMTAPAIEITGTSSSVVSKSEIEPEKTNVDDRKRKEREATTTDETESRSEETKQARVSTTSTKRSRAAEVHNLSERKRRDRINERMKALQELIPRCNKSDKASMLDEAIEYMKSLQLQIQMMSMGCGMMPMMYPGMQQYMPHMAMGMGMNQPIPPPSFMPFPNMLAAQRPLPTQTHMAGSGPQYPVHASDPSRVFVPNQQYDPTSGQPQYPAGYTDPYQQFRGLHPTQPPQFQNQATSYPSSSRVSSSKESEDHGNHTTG

Measured: binding result

B1: His-tagged 14-3-3κ (natural protein, Arabidopsis thaliana, UniProt P48348 1-248, looked up)
chain: MATTLSRDQYVYMAKLAEQAERYEEMVQFMEQLVSGATPAGELTVEERNLLSVAYKNVIGSLRAAWRIVSSIEQKEESRKNEEHVSLVKDYRSKVETELSSICSGILRLLDSHLIPSATASESKVFYLKMKGDYHRYLAEFKSGDERKTAAEDTMIAYKAAQDVAVADLAPTHPIRLGLALNFSVFYYEILNSSEKACSMAKQAFEEAIAELDTLGEESYKDSTLIMQLLRDNLTLWTSDMQEQMDEA
notes: 14-3-3 kappa isoform, Arabidopsis thaliana; also called HIS-14-3-3κ; His-14-3-3κ
binds: all assays above
